Results as given in patent US20240269276A1 (HARBOUR BIOMED SHANGHAI, published 2024).
Like-named read-outs stand apart in the source and are kept apart here.

T1: human CD73 on CHO-K1 cells overexpressing human CD73 (human, UniProt P21589 27-549)
T1 construct: whole, on cells; also called CHO-K1-hCD73
T1 sequence (looked up): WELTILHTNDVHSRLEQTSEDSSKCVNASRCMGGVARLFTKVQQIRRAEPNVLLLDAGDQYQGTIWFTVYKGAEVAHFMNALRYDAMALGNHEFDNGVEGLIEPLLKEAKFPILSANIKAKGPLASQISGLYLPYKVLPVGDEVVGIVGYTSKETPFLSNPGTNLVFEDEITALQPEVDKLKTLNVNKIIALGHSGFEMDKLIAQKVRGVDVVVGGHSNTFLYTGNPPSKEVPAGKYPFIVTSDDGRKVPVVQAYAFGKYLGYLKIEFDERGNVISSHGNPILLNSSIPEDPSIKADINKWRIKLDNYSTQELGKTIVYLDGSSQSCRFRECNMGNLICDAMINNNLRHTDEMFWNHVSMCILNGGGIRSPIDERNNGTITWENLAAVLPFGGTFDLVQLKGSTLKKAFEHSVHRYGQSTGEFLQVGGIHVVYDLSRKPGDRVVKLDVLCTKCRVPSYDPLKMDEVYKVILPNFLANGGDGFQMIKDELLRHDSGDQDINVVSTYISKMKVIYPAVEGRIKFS


Columns and labels:
[1] = target: T2, human PD-L1 on CHO-K1 cells overexpressing human PD-L1 (human, UniProt Q9NZQ7 19-290); assay: flow cytometry on CHO-K1 cells overexpressing human PD-L1 (CHO-K1-hPD-L1) [continued) F]
T2 construct: whole, on cells; also called CHO-K1/hPD-L1; CHO-K1-hPD-L1
Procedure: (§1) In order to investigate the binding activity of the CD73×PD-L1 bispecific antibody to human CD73 and PD-L1, the binding experiment at the cellular level was performed using CHO-K1 cell strains overexpressing human CD73 or PD-L1 (CHO-K1-hCD73 or CHO-K1-hPD-L1). Briefly, the CHO-K1-hCD73 and CHO-K1-hPD-L1 cells were digested and resuspended in an F-12K complete medium, and the cell density was adjusted to 1×10⁶ cells/mL. The cells were seeded in a 96-well V-bottom plate (Corning, #3894) at 100 μL/well, followed by the addition at 100 μL/well and centrifugation at 500 g at 4° C. for 5 min, and then the supernatant was discarded. Antibodies were 3-fold diluted to a maximum final concentration of 50 nM, and a total of 8 concentrations were set. 100 μL of the diluted antibodies was added to the cells, and the cells were incubated away from light at 4° C for 1 h. Thereafter, the cells in each well were rinsed twice with 100 μL of pre-cooled PBS, and centrifuged at 500 g at 4° C. for 5 min, and then the supernatant was discarded. Then 100 μL of a fluorescent secondary antibody (goat anti-human IgG (H+L) secondary antibody, Alexa Fluor® 488 conjugate, Invitrogen, #A11013, diluted at the ratio of 1:1000) was added to each well. […] Finally, the cells in each well were resuspended in 200 μL of pre-cooled PBS, and the fluorescence signal values were read using a BD FACS CANTOII.

[2] = target: T3, cynomolgus monkey PD-L1 on CHO-K1 cells overexpressing cynomolgus monkey PD-L1 (cynomolgus monkey, UniProt G7PSE7 19-290); assay: flow cytometry on CHO-K1 cells overexpressing cynomolgus monkey PD-L1 (CHO-K1/cynoPD-L1)
T3 construct: also called CHO-K1/cynoPD-L1; GenScript M00573
Procedure: (§2) In the example, in order to study the in vitro binding activity of the PD-L1 antigen-binding protein to human/cynomolgus monkey PD-L1, cell-level binding experiments were performed using CHO-K1 cell strains overexpressing human PD-L1 (CHO-K1/hPD-L1, GenScript, M00543) or CHO-K1 cell strains overexpressing cynomolgus monkey PD-L1 (CHO-K1/cynoPD-L1, GenScript, M00573). Briefly, the PD-L1 cells were digested and resuspended in an F-12K complete medium, and the cell density was adjusted to 1×10⁶ cells/mL. The cells were seeded in a 96-well V-bottom plate (Corning, 3894) at 100 μL/well, followed by the addition of the test antigen-binding proteins serially diluted 5-fold with concentrations that were twice the final concentrations at 100 μL/well. The mixtures were well mixed. The highest final concentration of the antigen-binding proteins was 100 nM. A total of 8 concentrations were set. An isotype antibody hIgG1 iso was used as a control. The cells were incubated away from light at 4° C. for 1 h. Thereafter, the cells in each well were rinsed twice with 100 μL of pre-cooled PBS, and centrifuged at 500 g at 4° C. for 5 min, and then the supernatant was discarded. Then 100 μL of a fluorescent secondary antibody (goat anti-human IgG (H+L) secondary antibody, Alexa Fluor 488 conjugate, Invitrogen, A11013, diluted at the ratio of 1:1000) was added to each well. The plate was incubated away from light at 4° C. for 30 min. The cells in each well were then rinsed twice with 200 μL of pre-cooled PBS and centrifuged at 500 g at 4° C. for 5 min, and then the supernatant was discarded. Finally, a pre-cooled PBS was added at 200 μL/well to resuspend the cells. Fluorescence signal values were read using a BD FACS CANTOII. Fluorescence signal values were read using a flow cytometer BD FACS CANTOII or FACS ACEA, and the data were processed and analyzed using FlowJo v10 (FlowJo, LLC) software. The data were processed and analyzed by plotting using GraphPad Prism 8 software, and binding curves, EC50 values and other parameters were acquired through four-parameter nonlinear fitting.

[3] = target: T2, human PD-L1 on CHO-K1 cells …; assay: flow cytometry on CHO-K1 cells overexpressing human PD-L1 (CHO-K1-hPD-L1) [continued) E]
Procedure: as §1

[4] = target: T2, human PD-L1 on CHO-K1 cells …; assay: flow cytometry on CHO-K1 cells overexpressing human PD-L1 (CHO-K1/hPD-L1) [continued) E]
Procedure: as §2

[5] = target: T4, human PD-L1 protein with histidine tag (ACROBiosystems #PD-1-H5258) (human, UniProt Q9NZQ7 19-238); assay: BLI (Octet Red96e); His-tagged human PD-L1 captured on HIS1K sensor, antibody at 60 nM; 1:1 fit
T4 construct: Bought protein; also called His PD-L1; human PD-L1 proteins; not shown: histidine tag
Procedure: In this example, affinity determination was performed on the affinity-matured mutants of PR002082 using an Octet Red96e instrument. […] The binding kinetics between the antigen and the antibody was analyzed by the biolayer interferometry (BLI) technique using an Octet molecular interaction analyzer (ForteBio, model: Octet Red96e).
When the affinity of the antigen for the antibody was determined, the rotation speed of the sensor was set at 1000 rpm/min. The 2 HIS1K sensors placed in a column were first equilibrated for 10 min in test buffer, then His PD-L1 was captured with the HIS1K sensor at a capture height of 0.9-1.1 nm, then the HIS1K sensor was equilibrated for 2 min in the test buffer, then the HIS1K sensor was bound to the antigen-binding protein (60 nM and 0 nM) for 3 min, and finally the mixture was dissociated for 15 min. The HIS1K sensor was immersed in a 10 mM glycine solution (pH 1.5) for regeneration to elute the proteins bound to the sensor.
When data analysis was performed using Octet Data Analysis software (Fortebio, version 11.0), the reference signals were subtracted by a single reference mode (reference well), the data were fitted by a “1:1 Local/full fitting” method, and the kinetic parameters of the binding of the antigen to the antibody were calculated to obtain Kₒₙ (1/Ms) values, Kdis (1/s) values and KD (M) values.

[6] = target: T2, human PD-L1 on CHO-K1 cells …; assay: flow cytometry on CHO-K1 cells overexpressing human PD-L1 (CHO-K1/hPD-L1) [continued) D]
Procedure: as §2

[7] = target: T2, human PD-L1 on CHO-K1 cells …; assay: flow cytometry on CHO-K1 cells overexpressing human PD-L1 (CHO-K1/hPD-L1) [continued) F]
Procedure: as §2

[8] = target: T2, human PD-L1 on CHO-K1 cells …; assay: flow cytometry on CHO-K1 cells overexpressing human PD-L1 (CHO-K1/hPD-L1)
Procedure: as §2

[9] = target: T3, cynomolgus monkey PD-L1 on CHO-K1 cells …; assay: flow cytometry on CHO-K1 cells overexpressing cynomolgus monkey PD-L1 (CHO-K1/cynoPD-L1); remark: listed apart in the source
Procedure: as §2

[10] = target: T1, human CD73 on CHO-K1 cells …; assay: flow cytometry on CHO-K1 cells overexpressing human CD73 (CHO-K1-hCD73) [continued) D]
Procedure: as §1

[11] = target: T1, human CD73 on CHO-K1 cells …; assay: flow cytometry on CHO-K1 cells overexpressing human CD73 (CHO-K1-hCD73) [continued) C]
Procedure: as §1

[12] = target: T1, human CD73 on CHO-K1 cells …; assay: flow cytometry on CHO-K1 cells overexpressing human CD73 (CHO-K1-hCD73)
Procedure: In order to investigate the binding activity of the CD73×PD-L1 bispecific antibody to human CD73 and PD-L1, the binding experiment at the cellular level was performed using CHO-K1 cell strains overexpressing human CD73 or PD-L1 (CHO-K1-hCD73 or CHO-K1-hPD-L1). Briefly, the CHO-K1-hCD73 and CHO-K1-hPD-L1 cells were digested and resuspended in an F-12K complete medium, and the cell density was adjusted to 1×10⁶ cells/mL. The cells were seeded in a 96-well V-bottom plate (Corning, #3894) at 100 μL/well, followed by the addition at 100 μL/well and centrifugation at 500 g at 4° C. for 5 min, and then the supernatant was discarded. Antibodies were 3-fold diluted to a maximum final concentration of 50 nM, and a total of 8 concentrations were set. 100 μL of the diluted antibodies was added to the cells, and the cells were incubated away from light at 4° C for 1 h. Thereafter, the cells in each well were rinsed twice with 100 μL of pre-cooled PBS, and centrifuged at 500 g at 4° C. for 5 min, and then the supernatant was discarded. Then 100 μL of a fluorescent secondary antibody (goat anti-human IgG (H+L) secondary antibody, Alexa Fluor® 488 conjugate, Invitrogen, #A11013, diluted at the ratio of 1:1000) was added to each well. The plate was incubated away from light at 4° C. for 30 min. The cells in each well were then rinsed twice with 200 μL of pre-cooled PBS and centrifuged at 500 g at 4° C. for 5 min, and then the supernatant was discarded. Finally, the cells in each well were resuspended in 200 μL of pre-cooled PBS, and the fluorescence signal values were read using a BD FACS CANTOII.

T3 sequence (G7PSE7 entry or part of it limits assumed): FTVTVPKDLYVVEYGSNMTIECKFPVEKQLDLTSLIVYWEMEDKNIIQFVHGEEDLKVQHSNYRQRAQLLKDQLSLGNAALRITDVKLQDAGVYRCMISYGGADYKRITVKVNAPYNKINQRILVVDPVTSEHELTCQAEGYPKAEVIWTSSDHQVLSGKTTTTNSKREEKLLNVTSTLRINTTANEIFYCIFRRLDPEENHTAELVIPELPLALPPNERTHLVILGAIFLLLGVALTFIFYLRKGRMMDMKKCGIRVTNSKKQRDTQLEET
T2 sequence (Q9NZQ7 19-290): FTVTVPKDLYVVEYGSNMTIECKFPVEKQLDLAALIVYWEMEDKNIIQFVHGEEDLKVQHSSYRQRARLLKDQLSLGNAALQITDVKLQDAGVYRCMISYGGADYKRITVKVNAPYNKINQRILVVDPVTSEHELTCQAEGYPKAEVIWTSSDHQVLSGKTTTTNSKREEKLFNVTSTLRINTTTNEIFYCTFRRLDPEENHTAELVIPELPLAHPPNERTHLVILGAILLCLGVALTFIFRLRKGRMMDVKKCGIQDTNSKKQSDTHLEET
T4 sequence (Q9NZQ7 19-238 limits assumed): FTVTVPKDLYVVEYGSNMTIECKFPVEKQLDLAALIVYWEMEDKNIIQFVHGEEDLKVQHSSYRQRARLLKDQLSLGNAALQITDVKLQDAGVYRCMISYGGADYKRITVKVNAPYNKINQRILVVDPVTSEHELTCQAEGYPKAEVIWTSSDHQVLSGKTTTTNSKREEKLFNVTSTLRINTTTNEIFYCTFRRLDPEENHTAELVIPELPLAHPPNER

EC50 [1]	EC50 [2]	EC50 [3]	EC50 [4]	Maximum MFI [4]	Kd [5]	koff [5]	kon [5]	EC50 [6]	Maximum MFI [6]	EC50 [7]	Maximum MFI [7]	EC50 [8]	Maximum MFI [8]	EC50 [9]	Maximum MFI [9]	EC50 [10]	EC50 [11]	EC50 [12]	Binder
2.93 nM	0.386 nM	1.17 nM	1.24 nM	381000 MFI	5.61 nM	0.00118 s⁻¹	210000 M⁻¹ s⁻¹	1.23 nM	387000 MFI	1.31 nM	430000 MFI	0.86 nM	24500 MFI	1.52 nM	12100 MFI	–	–	–	PR002082 (antibody, human IgG1, V domains shown, HCAb; also called PTM variant of PR000960 (N28T, N31S)) VH: QVQLVESGGGVVQPGMSLRLSCAASGFTFSSYGMYWVRQAPGKGQEWVAIIWYDGTKKHYADSVKGRFTISRDNSKNTLYLEMNSLRVEDTAVYYCAKNRAIFGVVPDASDIRGQGTMVTVSS
–	–	–	–	–	–	–	–	–	–	–	–	–	–	–	–	0.737 nM	1.73 nM	0.352 nM	PR000846 (antibody, human IgG1, kappa, L234A L235A, V domains shown, Anti-CD73 IgG (human IgG1 constant region, human Ig kappa), PTM removed; also called anti-CD73 antibody PR000846; parent monoclonal antibody PR000846) VH: QVQLVESGGGVAQPGRSLSLSCAASGFTFSDYGMHWVRQAPGKGLEWVALIWYDASFEYYADSVKGRFSISRDNSKNTLYLQMNSLRAEDTAVYYCVRDAQWGSRLDYWGQGTLVTVSS VL: KIVMTQSPATLSLSPGERATLSCRASQSVSRYLAWYQQKPGQAPRLLIYDASNRATGIPARFSGSGSGTDFTLTISSLEPEDFAVYYCQQRSNWIFTFGPGTKVDIKR
